Numbered stars: 1 amine (or outer) side, 2 acyl side, 3 side chain; on linkers, the order of the positions; unused ones are H or OH. Bridge positions count the residues as written; N and C are the ends. Side chains are listed from the residue outwards. Ends that are not written are not given here. * marks the point of attachment. C20 diacid = O=C(O)CCCCCCCCCCCCCCCCCCC(=O)*; γGlu = O=C(O)[C@H](CCC(=O)[*:2])N[*:1]; AEEA = NCCOCCOCC(=O)O
B1: N^ε1-[2-[2-[2-[[(4S)-4-carboxy-4-(19-carboxynonadecanoylamino)butanoyl]amino]ethoxy]ethoxy]acetyl]-[His14,Arg17,Pro21,Pro27]-h-amylin (peptide)
peptide: K([AEEA-γGlu-C20 diacid])CNTATCATQRLAHFLRHSSPNFGAIPSSTNVGSNTY-NH2
modifications: disulfide 2-7; N-terminus assumed
SMILES: CC[C@H](C)[C@H](NC(=O)[C@H](C)NC(=O)CNC(=O)[C@H](Cc1ccccc1)NC(=O)[C@H](CC(N)=O)NC(=O)[C@@H]1CCCN1C(=O)[C@H](CO)NC(=O)[C@H](CO)NC(=O)[C@H](Cc1c[nH]cn1)NC(=O)[C@H](CCCNC(=N)N)NC(=O)[C@H](CC(C)C)NC(=O)[C@H](Cc1ccccc1)NC(=O)[C@H](Cc1c[nH]cn1)NC(=O)[C@H](C)NC(=O)[C@H](CC(C)C)NC(=O)[C@H](CCCNC(=N)N)NC(=O)[C@H](CCC(N)=O)NC(=O)[C@@H](NC(=O)[C@H](C)NC(=O)[C@@H]1CSSC[C@H](NC(=O)[C@@H](N)CCCCNC(=O)COCCOCCNC(=O)CC[C@H](NC(=O)CCCCCCCCCCCCCCCCCCC(=O)O)C(=O)O)C(=O)N[C@@H](CC(N)=O)C(=O)N[C@@H]([C@@H](C)O)C(=O)N[C@@H](C)C(=O)N[C@@H]([C@@H](C)O)C(=O)N1)[C@@H](C)O)C(=O)N1CCC[C@H]1C(=O)N[C@@H](CO)C(=O)N[C@@H](CO)C(=O)N[C@H](C(=O)N[C@@H](CC(N)=O)C(=O)N[C@H](C(=O)NCC(=O)N[C@@H](CO)C(=O)N[C@@H](CC(N)=O)C(=O)N[C@H](C(=O)N[C@@H](Cc1ccc(O)cc1)C(N)=O)[C@@H](C)O)C(C)C)[C@@H](C)O
notes: also called compound 69
B2: N^ε-[(4S)-4-carboxy-4-(19-carboxynonadecanoylamino)butanoyl]Lys[Arg1,Arg17,Pro21,Pro27,His35]-h-amylin (peptide)
peptide: K([γGlu-C20 diacid])RCNTATCATQRLANFLRHSSPNFGAIPSSTNVGSHTY-NH2
modifications: disulfide 3-8; N-terminus assumed
SMILES: CC[C@H](C)[C@H](NC(=O)[C@H](C)NC(=O)CNC(=O)[C@H](Cc1ccccc1)NC(=O)[C@H](CC(N)=O)NC(=O)[C@@H]1CCCN1C(=O)[C@H](CO)NC(=O)[C@H](CO)NC(=O)[C@H](Cc1c[nH]cn1)NC(=O)[C@H](CCCNC(=N)N)NC(=O)[C@H](CC(C)C)NC(=O)[C@H](Cc1ccccc1)NC(=O)[C@H](CC(N)=O)NC(=O)[C@H](C)NC(=O)[C@H](CC(C)C)NC(=O)[C@H](CCCNC(=N)N)NC(=O)[C@H](CCC(N)=O)NC(=O)[C@@H](NC(=O)[C@H](C)NC(=O)[C@@H]1CSSC[C@H](NC(=O)[C@H](CCCNC(=N)N)NC(=O)[C@@H](N)CCCCNC(=O)CC[C@H](NC(=O)CCCCCCCCCCCCCCCCCCC(=O)O)C(=O)O)C(=O)N[C@@H](CC(N)=O)C(=O)N[C@@H]([C@@H](C)O)C(=O)N[C@@H](C)C(=O)N[C@@H]([C@@H](C)O)C(=O)N1)[C@@H](C)O)C(=O)N1CCC[C@H]1C(=O)N[C@@H](CO)C(=O)N[C@@H](CO)C(=O)N[C@H](C(=O)N[C@@H](CC(N)=O)C(=O)N[C@H](C(=O)NCC(=O)N[C@@H](CO)C(=O)N[C@@H](Cc1c[nH]cn1)C(=O)N[C@H](C(=O)N[C@@H](Cc1ccc(O)cc1)C(N)=O)[C@@H](C)O)C(C)C)[C@@H](C)O
notes: extended by one residue at the N-terminus; also called compound 44
B3: N^-1-[(4S)-4-carboxy-4-(19-carboxynonadecanoylamino)butanoyl]-Gly[Arg1,Arg17,Pro21,Pro27,His35]-h-amylin (peptide)
peptide: {C20 diacid-γGlu}-GRCNTATCATQRLANFLRHSSPNFGAIPSSTNVGSHTY-NH2
modifications: disulfide 3-8
SMILES: CC[C@H](C)[C@H](NC(=O)[C@H](C)NC(=O)CNC(=O)[C@H](Cc1ccccc1)NC(=O)[C@H](CC(N)=O)NC(=O)[C@@H]1CCCN1C(=O)[C@H](CO)NC(=O)[C@H](CO)NC(=O)[C@H](Cc1c[nH]cn1)NC(=O)[C@H](CCCNC(=N)N)NC(=O)[C@H](CC(C)C)NC(=O)[C@H](Cc1ccccc1)NC(=O)[C@H](CC(N)=O)NC(=O)[C@H](C)NC(=O)[C@H](CC(C)C)NC(=O)[C@H](CCCNC(=N)N)NC(=O)[C@H](CCC(N)=O)NC(=O)[C@@H](NC(=O)[C@H](C)NC(=O)[C@@H]1CSSC[C@H](NC(=O)[C@H](CCCNC(=N)N)NC(=O)CNC(=O)CC[C@H](NC(=O)CCCCCCCCCCCCCCCCCCC(=O)O)C(=O)O)C(=O)N[C@@H](CC(N)=O)C(=O)N[C@@H]([C@@H](C)O)C(=O)N[C@@H](C)C(=O)N[C@@H]([C@@H](C)O)C(=O)N1)[C@@H](C)O)C(=O)N1CCC[C@H]1C(=O)N[C@@H](CO)C(=O)N[C@@H](CO)C(=O)N[C@H](C(=O)N[C@@H](CC(N)=O)C(=O)N[C@H](C(=O)NCC(=O)N[C@@H](CO)C(=O)N[C@@H](Cc1c[nH]cn1)C(=O)N[C@H](C(=O)N[C@@H](Cc1ccc(O)cc1)C(N)=O)[C@@H](C)O)C(C)C)[C@@H](C)O
notes: extended by one residue at the N-terminus; also called compound 47
B4: N^-1-[(4S)-4-carboxy-4-(19-carboxynonadecanoylamino)butanoyl]-Gly[Arg1,Arg17,Pro21,Pro27]-h-amylin (peptide)
peptide: {C20 diacid-γGlu}-GRCNTATCATQRLANFLRHSSPNFGAIPSSTNVGSNTY-NH2
modifications: disulfide 3-8
SMILES: CC[C@H](C)[C@H](NC(=O)[C@H](C)NC(=O)CNC(=O)[C@H](Cc1ccccc1)NC(=O)[C@H](CC(N)=O)NC(=O)[C@@H]1CCCN1C(=O)[C@H](CO)NC(=O)[C@H](CO)NC(=O)[C@H](Cc1c[nH]cn1)NC(=O)[C@H](CCCNC(=N)N)NC(=O)[C@H](CC(C)C)NC(=O)[C@H](Cc1ccccc1)NC(=O)[C@H](CC(N)=O)NC(=O)[C@H](C)NC(=O)[C@H](CC(C)C)NC(=O)[C@H](CCCNC(=N)N)NC(=O)[C@H](CCC(N)=O)NC(=O)[C@@H](NC(=O)[C@H](C)NC(=O)[C@@H]1CSSC[C@H](NC(=O)[C@H](CCCNC(=N)N)NC(=O)CNC(=O)CC[C@H](NC(=O)CCCCCCCCCCCCCCCCCCC(=O)O)C(=O)O)C(=O)N[C@@H](CC(N)=O)C(=O)N[C@@H]([C@@H](C)O)C(=O)N[C@@H](C)C(=O)N[C@@H]([C@@H](C)O)C(=O)N1)[C@@H](C)O)C(=O)N1CCC[C@H]1C(=O)N[C@@H](CO)C(=O)N[C@@H](CO)C(=O)N[C@H](C(=O)N[C@@H](CC(N)=O)C(=O)N[C@H](C(=O)NCC(=O)N[C@@H](CO)C(=O)N[C@@H](CC(N)=O)C(=O)N[C@H](C(=O)N[C@@H](Cc1ccc(O)cc1)C(N)=O)[C@@H](C)O)C(C)C)[C@@H](C)O
notes: extended by one residue at the N-terminus; also called compound 46
B5: N^ε-[2-[2-[2-[[(4S)-4-carboxy-4-(19-carboxynonadecanoylamino)butanoyl]amino]ethoxy]ethoxy]acetyl]Lys[Arg1,Arg17,Pro21,Pro27,His35]-h-amylin (peptide)
peptide: K([AEEA-γGlu-C20 diacid])RCNTATCATQRLANFLRHSSPNFGAIPSSTNVGSHTY-NH2
modifications: disulfide 3-8; N-terminus assumed
SMILES: CC[C@H](C)[C@H](NC(=O)[C@H](C)NC(=O)CNC(=O)[C@H](Cc1ccccc1)NC(=O)[C@H](CC(N)=O)NC(=O)[C@@H]1CCCN1C(=O)[C@H](CO)NC(=O)[C@H](CO)NC(=O)[C@H](Cc1c[nH]cn1)NC(=O)[C@H](CCCNC(=N)N)NC(=O)[C@H](CC(C)C)NC(=O)[C@H](Cc1ccccc1)NC(=O)[C@H](CC(N)=O)NC(=O)[C@H](C)NC(=O)[C@H](CC(C)C)NC(=O)[C@H](CCCNC(=N)N)NC(=O)[C@H](CCC(N)=O)NC(=O)[C@@H](NC(=O)[C@H](C)NC(=O)[C@@H]1CSSC[C@H](NC(=O)[C@H](CCCNC(=N)N)NC(=O)[C@@H](N)CCCCNC(=O)COCCOCCNC(=O)CC[C@H](NC(=O)CCCCCCCCCCCCCCCCCCC(=O)O)C(=O)O)C(=O)N[C@@H](CC(N)=O)C(=O)N[C@@H]([C@@H](C)O)C(=O)N[C@@H](C)C(=O)N[C@@H]([C@@H](C)O)C(=O)N1)[C@@H](C)O)C(=O)N1CCC[C@H]1C(=O)N[C@@H](CO)C(=O)N[C@@H](CO)C(=O)N[C@H](C(=O)N[C@@H](CC(N)=O)C(=O)N[C@H](C(=O)NCC(=O)N[C@@H](CO)C(=O)N[C@@H](Cc1c[nH]cn1)C(=O)N[C@H](C(=O)N[C@@H](Cc1ccc(O)cc1)C(N)=O)[C@@H](C)O)C(C)C)[C@@H](C)O
notes: extended by one residue at the N-terminus; also called compound 45

Experiments:
[1] = target: T1, human amylin receptor (amylin 3(a) receptor: human calcitonin receptor co-expressed with RAMP-3) (human, UniProt P30988 25-474; O60896 24-148, limits assumed); assay: cell-based or functional assay
T1 sequence (looked up) 1: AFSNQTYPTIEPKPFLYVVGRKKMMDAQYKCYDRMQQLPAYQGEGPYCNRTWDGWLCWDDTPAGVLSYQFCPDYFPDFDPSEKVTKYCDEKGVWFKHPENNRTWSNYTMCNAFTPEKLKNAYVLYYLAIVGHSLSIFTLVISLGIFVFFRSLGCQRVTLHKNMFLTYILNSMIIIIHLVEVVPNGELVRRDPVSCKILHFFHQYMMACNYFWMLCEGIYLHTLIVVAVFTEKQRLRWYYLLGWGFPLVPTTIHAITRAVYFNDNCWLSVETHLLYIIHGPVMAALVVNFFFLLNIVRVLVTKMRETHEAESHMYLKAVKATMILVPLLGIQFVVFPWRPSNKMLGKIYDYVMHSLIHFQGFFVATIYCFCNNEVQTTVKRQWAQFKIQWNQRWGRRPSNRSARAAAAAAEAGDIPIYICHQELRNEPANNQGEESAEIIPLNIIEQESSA
T1 sequence (looked up) 2: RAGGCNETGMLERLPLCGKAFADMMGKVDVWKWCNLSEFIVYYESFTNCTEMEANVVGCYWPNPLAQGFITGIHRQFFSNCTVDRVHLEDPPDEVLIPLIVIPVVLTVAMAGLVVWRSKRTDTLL

[2] = target: T2, human calcitonin receptor (human, UniProt P30988 25-474); assay: cell-based or functional assay
T2 sequence (looked up): T1 sequence (looked up) 1

[3] = target: T3, human calcitonin receptor (human, UniProt P30988 25-474); assay: ratio of IC50 at hCTR to IC50 at the human amylin receptor (reference)
T3 construct: whole, on cells; also called hCTR; hCT
T3 sequence (looked up): T1 sequence (looked up) 1
In short: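 Membranes (35 ng/μL final) + SPA beads, 50 mM Hepes pH 7.4 buffer with 1 mM CaCl2, 5 mM MgCl₂, 0.1% OA, 0.02% Tween20; 120 min, 25° C, shaking; centrifuged, counted; IC₅₀ by one-site binding competition.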

[4] = target: T3, human calcitonin receptor; assay: SPA competition binding, membranes with human calcitonin receptor, displacement of 125I-calcitonin (Assay VII)
In short: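 BHK hCTR membranes 35 ng/μL + SPA beads 0.05 mg/well; buffer 50 mM Hepes pH 7.4, 1 mM CaCl2, 5 mM MgCl₂, 0.1% OA, 0.02% Tween20. 120 min, 25° C., shaking. Scintillation count; IC50 by one-site binding competition.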

| Binder | hAmylin-R funct. EC50 [1] | hCTR funct. EC50 [2] | Ratio hCT/hAmylin binding [3] | IC50 [4] |
| --- | --- | --- | --- | --- |
| B1 | 0.094 nM | 1.25 nM |  |  |
| B2 |  |  | 17.7 | 4.87 nM |
| B3 |  |  | 44.9 | 15.5 nM |
| B4 |  |  | 48.9 | 9.53 nM |
| B5 |  |  | 26.8 | 14.8 nM |

Reference: US20140087995A1 (published 2014)
